Consider 2 proteins from doi:10.1101/160580 (bioRxiv, 2017).

The data set “NMR relaxation” concerns the molecule itself. Kind of data set: NMR relaxation.
Data set [1] deals with the molecule itself. Kind of data set: cell-based or functional assay.

Residue numbers refer to the chain shown, from its start. Numbers in names are those of the source.

B1: sperm lysin from red abalone (Haliotis rufescens), wild type (natural protein)
chain: RSWHYVEPKFLNKAFEVALKVQIIAGFDRGLVKWLRVHGRTLSTVQKKALYFVNRRYMQTHWANYMLWINKKIDALGRTPVVGDYTRLGAEIGRRIDMAYFYDFLKDKNMIPKYLPYMEEINRMRPADVPVKYMGK
B1: the binding result in “NMR relaxation” is reported as “binds”.

B2: F104A lysin (monomeric mutant of red abalone sperm lysin) (natural protein)
chain: B1 chain with F104A
With B2, the “in vitro VE dissolution (turbidity at 640 nm), F104A lysin against WT lysin” value in data set [1] was at least 4 fold.
